In patent publication US20120316071A1 (published 2012):

B1: Fab VH5-51_IGHD5-18*01>3_IGHJ4*01 G100K/G104T & V3-4_IGLJ1*01 (Fab, V domains shown)
VH: EVQLVQSGAEVKKPGESLKISCKGSGYSFTSYWIGWVRQMPGKGLEWMGIIYPGDSDTRYSPSFQGQVTISADKSISTAYLQWSSLKASDTAMYYCARRKYSYTYDYFDYWGQGTLVTVSS
VL: QTVVTQEPSFSVSPGGTVTLTCGLSSGSVSTSYYPSWYQQTPGQAPRTLIYSTNTRSSGVPDRFSGSILGNKAALTITGAQADDESDYYCVLYMGSGISYVFGTGTKVTVL
notes: Fab; expressed with CH1 (His and Flag tags) and lambda CL from the expression plasmids; also called H:KT & L:wt; KT double mutant
B2: Fab VH5-51_IGHD5-18*01>3_IGHJ4*01 G100K/G104T & V3-4_IGLJ1*01 V91H (Fab, V domains shown)
VH: EVQLVQSGAEVKKPGESLKISCKGSGYSFTSYWIGWVRQMPGKGLEWMGIIYPGDSDTRYSPSFQGQVTISADKSISTAYLQWSSLKASDTAMYYCARRKYSYTYDYFDYWGQGTLVTVSS
VL: QTVVTQEPSFSVSPGGTVTLTCGLSSGSVSTSYYPSWYQQTPGQAPRTLIYSTNTRSSGVPDRFSGSILGNKAALTITGAQADDESDYYCHLYMGSGISYVFGTGTKVTVL
notes: Fab; expressed with CH1 (His and Flag tags) and lambda CL from the expression plasmids; also called H:KT & V91H
B3: Fab VH5-51_IGHD5-18*01>3_IGHJ4*01 G100K/G104T & V3-4_IGLJ1*01 M94G (Fab, V domains shown)
VH: EVQLVQSGAEVKKPGESLKISCKGSGYSFTSYWIGWVRQMPGKGLEWMGIIYPGDSDTRYSPSFQGQVTISADKSISTAYLQWSSLKASDTAMYYCARRKYSYTYDYFDYWGQGTLVTVSS
VL: QTVVTQEPSFSVSPGGTVTLTCGLSSGSVSTSYYPSWYQQTPGQAPRTLIYSTNTRSSGVPDRFSGSILGNKAALTITGAQADDESDYYCVLYGGSGISYVFGTGTKVTVL
notes: Fab; expressed with CH1 (His and Flag tags) and lambda CL from the expression plasmids; also called H:KT & M94G
B4: Fab VH5-51_IGHD5-18*01>3_IGHJ4*01 G100K/G104T & V3-4_IGLJ1*01 M94P (Fab, V domains shown)
VH: EVQLVQSGAEVKKPGESLKISCKGSGYSFTSYWIGWVRQMPGKGLEWMGIIYPGDSDTRYSPSFQGQVTISADKSISTAYLQWSSLKASDTAMYYCARRKYSYTYDYFDYWGQGTLVTVSS
VL: QTVVTQEPSFSVSPGGTVTLTCGLSSGSVSTSYYPSWYQQTPGQAPRTLIYSTNTRSSGVPDRFSGSILGNKAALTITGAQADDESDYYCVLYPGSGISYVFGTGTKVTVL
notes: Fab; expressed with CH1 (His and Flag tags) and lambda CL from the expression plasmids; also called H:KT & M94P
B5: Fab VH5-51_IGHD5-18*01>3_IGHJ4*01 G100K/G104T & V3-4_IGLJ1*01 M94N (Fab, V domains shown)
VH: EVQLVQSGAEVKKPGESLKISCKGSGYSFTSYWIGWVRQMPGKGLEWMGIIYPGDSDTRYSPSFQGQVTISADKSISTAYLQWSSLKASDTAMYYCARRKYSYTYDYFDYWGQGTLVTVSS
VL: QTVVTQEPSFSVSPGGTVTLTCGLSSGSVSTSYYPSWYQQTPGQAPRTLIYSTNTRSSGVPDRFSGSILGNKAALTITGAQADDESDYYCVLYNGSGISYVFGTGTKVTVL
notes: Fab; expressed with CH1 (His and Flag tags) and lambda CL from the expression plasmids; also called H:KT & M94N
B6: Fab VH5-51_IGHD5-18*01>3_IGHJ4*01 G100K/G104T & V3-4_IGLJ1*01 V91G (Fab, V domains shown)
VH: EVQLVQSGAEVKKPGESLKISCKGSGYSFTSYWIGWVRQMPGKGLEWMGIIYPGDSDTRYSPSFQGQVTISADKSISTAYLQWSSLKASDTAMYYCARRKYSYTYDYFDYWGQGTLVTVSS
VL: QTVVTQEPSFSVSPGGTVTLTCGLSSGSVSTSYYPSWYQQTPGQAPRTLIYSTNTRSSGVPDRFSGSILGNKAALTITGAQADDESDYYCGLYMGSGISYVFGTGTKVTVL
notes: Fab; expressed with CH1 (His and Flag tags) and lambda CL from the expression plasmids; also called H:KT & V91G
B7: Fab VH5-51_IGHD5-18*01>3_IGHJ4*01 G100K/G104T & V3-4_IGLJ1*01 S96W (Fab, V domains shown)
VH: EVQLVQSGAEVKKPGESLKISCKGSGYSFTSYWIGWVRQMPGKGLEWMGIIYPGDSDTRYSPSFQGQVTISADKSISTAYLQWSSLKASDTAMYYCARRKYSYTYDYFDYWGQGTLVTVSS
VL: QTVVTQEPSFSVSPGGTVTLTCGLSSGSVSTSYYPSWYQQTPGQAPRTLIYSTNTRSSGVPDRFSGSILGNKAALTITGAQADDESDYYCVLYMGWGISYVFGTGTKVTVL
notes: Fab; expressed with CH1 (His and Flag tags) and lambda CL from the expression plasmids; also called H:KT & S96W
B8: Fab VH5-51_IGHD5-18*01>3_IGHJ4*01 G100K/G104T & V3-4_IGLJ1*01 S96G (Fab, V domains shown)
VH: EVQLVQSGAEVKKPGESLKISCKGSGYSFTSYWIGWVRQMPGKGLEWMGIIYPGDSDTRYSPSFQGQVTISADKSISTAYLQWSSLKASDTAMYYCARRKYSYTYDYFDYWGQGTLVTVSS
VL: QTVVTQEPSFSVSPGGTVTLTCGLSSGSVSTSYYPSWYQQTPGQAPRTLIYSTNTRSSGVPDRFSGSILGNKAALTITGAQADDESDYYCVLYMGGGISYVFGTGTKVTVL
notes: Fab; expressed with CH1 (His and Flag tags) and lambda CL from the expression plasmids; also called H:KT & S96G
B9: Fab VH5-51_IGHD5-18*01>3_IGHJ4*01 G100K/G104T & V3-4_IGLJ1*01 V91E (Fab, V domains shown)
VH: EVQLVQSGAEVKKPGESLKISCKGSGYSFTSYWIGWVRQMPGKGLEWMGIIYPGDSDTRYSPSFQGQVTISADKSISTAYLQWSSLKASDTAMYYCARRKYSYTYDYFDYWGQGTLVTVSS
VL: QTVVTQEPSFSVSPGGTVTLTCGLSSGSVSTSYYPSWYQQTPGQAPRTLIYSTNTRSSGVPDRFSGSILGNKAALTITGAQADDESDYYCELYMGSGISYVFGTGTKVTVL
notes: Fab; expressed with CH1 (His and Flag tags) and lambda CL from the expression plasmids; also called H:KT & V91E
B10: Fab VH5-51_IGHD5-18*01>3_IGHJ4*01 G100K/G104T & V3-4_IGLJ1*01 M94L (Fab, V domains shown)
VH: EVQLVQSGAEVKKPGESLKISCKGSGYSFTSYWIGWVRQMPGKGLEWMGIIYPGDSDTRYSPSFQGQVTISADKSISTAYLQWSSLKASDTAMYYCARRKYSYTYDYFDYWGQGTLVTVSS
VL: QTVVTQEPSFSVSPGGTVTLTCGLSSGSVSTSYYPSWYQQTPGQAPRTLIYSTNTRSSGVPDRFSGSILGNKAALTITGAQADDESDYYCVLYLGSGISYVFGTGTKVTVL
notes: Fab; expressed with CH1 (His and Flag tags) and lambda CL from the expression plasmids; also called H:KT & M94L
B11: Fab VH5-51_IGHD5-18*01>3_IGHJ4*01 G100K/G104T & V3-4_IGLJ1*01 M94S (Fab, V domains shown)
VH: EVQLVQSGAEVKKPGESLKISCKGSGYSFTSYWIGWVRQMPGKGLEWMGIIYPGDSDTRYSPSFQGQVTISADKSISTAYLQWSSLKASDTAMYYCARRKYSYTYDYFDYWGQGTLVTVSS
VL: QTVVTQEPSFSVSPGGTVTLTCGLSSGSVSTSYYPSWYQQTPGQAPRTLIYSTNTRSSGVPDRFSGSILGNKAALTITGAQADDESDYYCVLYSGSGISYVFGTGTKVTVL
notes: Fab; expressed with CH1 (His and Flag tags) and lambda CL from the expression plasmids; also called H:KT & M94S
B12: Fab VH5-51_IGHD5-18*01>3_IGHJ4*01 G100K/G104T & V3-4_IGLJ1*01 V91C (Fab, V domains shown)
VH: EVQLVQSGAEVKKPGESLKISCKGSGYSFTSYWIGWVRQMPGKGLEWMGIIYPGDSDTRYSPSFQGQVTISADKSISTAYLQWSSLKASDTAMYYCARRKYSYTYDYFDYWGQGTLVTVSS
VL: QTVVTQEPSFSVSPGGTVTLTCGLSSGSVSTSYYPSWYQQTPGQAPRTLIYSTNTRSSGVPDRFSGSILGNKAALTITGAQADDESDYYCCLYMGSGISYVFGTGTKVTVL
notes: Fab; expressed with CH1 (His and Flag tags) and lambda CL from the expression plasmids; also called H:KT & V91C
B13: Fab VH5-51_IGHD5-18*01>3_IGHJ4*01 G100K/G104T & V3-4_IGLJ1*01 M94F (Fab, V domains shown)
VH: EVQLVQSGAEVKKPGESLKISCKGSGYSFTSYWIGWVRQMPGKGLEWMGIIYPGDSDTRYSPSFQGQVTISADKSISTAYLQWSSLKASDTAMYYCARRKYSYTYDYFDYWGQGTLVTVSS
VL: QTVVTQEPSFSVSPGGTVTLTCGLSSGSVSTSYYPSWYQQTPGQAPRTLIYSTNTRSSGVPDRFSGSILGNKAALTITGAQADDESDYYCVLYFGSGISYVFGTGTKVTVL
notes: Fab; expressed with CH1 (His and Flag tags) and lambda CL from the expression plasmids; also called H:KT & M94F
B14: Fab VH5-51_IGHD5-18*01>3_IGHJ4*01 G100K/G104T & V3-4_IGLJ1*01 M94V (Fab, V domains shown)
VH: EVQLVQSGAEVKKPGESLKISCKGSGYSFTSYWIGWVRQMPGKGLEWMGIIYPGDSDTRYSPSFQGQVTISADKSISTAYLQWSSLKASDTAMYYCARRKYSYTYDYFDYWGQGTLVTVSS
VL: QTVVTQEPSFSVSPGGTVTLTCGLSSGSVSTSYYPSWYQQTPGQAPRTLIYSTNTRSSGVPDRFSGSILGNKAALTITGAQADDESDYYCVLYVGSGISYVFGTGTKVTVL
notes: Fab; expressed with CH1 (His and Flag tags) and lambda CL from the expression plasmids; also called H:KT & M94V
B15: Fab VH5-51_IGHD5-18*01>3_IGHJ4*01 G100K/G104T & V3-4_IGLJ1*01 M94T (Fab, V domains shown)
VH: EVQLVQSGAEVKKPGESLKISCKGSGYSFTSYWIGWVRQMPGKGLEWMGIIYPGDSDTRYSPSFQGQVTISADKSISTAYLQWSSLKASDTAMYYCARRKYSYTYDYFDYWGQGTLVTVSS
VL: QTVVTQEPSFSVSPGGTVTLTCGLSSGSVSTSYYPSWYQQTPGQAPRTLIYSTNTRSSGVPDRFSGSILGNKAALTITGAQADDESDYYCVLYTGSGISYVFGTGTKVTVL
notes: Fab; expressed with CH1 (His and Flag tags) and lambda CL from the expression plasmids; also called H:KT & M94T
B16: Fab VH5-51_IGHD5-18*01>3_IGHJ4*01 G100K/G104T & V3-4_IGLJ1*01 M94R (Fab, V domains shown)
VH: EVQLVQSGAEVKKPGESLKISCKGSGYSFTSYWIGWVRQMPGKGLEWMGIIYPGDSDTRYSPSFQGQVTISADKSISTAYLQWSSLKASDTAMYYCARRKYSYTYDYFDYWGQGTLVTVSS
VL: QTVVTQEPSFSVSPGGTVTLTCGLSSGSVSTSYYPSWYQQTPGQAPRTLIYSTNTRSSGVPDRFSGSILGNKAALTITGAQADDESDYYCVLYRGSGISYVFGTGTKVTVL
notes: Fab; expressed with CH1 (His and Flag tags) and lambda CL from the expression plasmids; also called H:KT & M94R
B17: Fab VH5-51_IGHD5-18*01>3_IGHJ4*01 G100K/G104T & V3-4_IGLJ1*01 M94D (Fab, V domains shown)
VH: EVQLVQSGAEVKKPGESLKISCKGSGYSFTSYWIGWVRQMPGKGLEWMGIIYPGDSDTRYSPSFQGQVTISADKSISTAYLQWSSLKASDTAMYYCARRKYSYTYDYFDYWGQGTLVTVSS
VL: QTVVTQEPSFSVSPGGTVTLTCGLSSGSVSTSYYPSWYQQTPGQAPRTLIYSTNTRSSGVPDRFSGSILGNKAALTITGAQADDESDYYCVLYDGSGISYVFGTGTKVTVL
notes: Fab; expressed with CH1 (His and Flag tags) and lambda CL from the expression plasmids; also called H:KT & M94D
B18: Fab VH5-51_IGHD5-18*01>3_IGHJ4*01 G100K/G104T & V3-4_IGLJ1*01 M94E (Fab, V domains shown)
VH: EVQLVQSGAEVKKPGESLKISCKGSGYSFTSYWIGWVRQMPGKGLEWMGIIYPGDSDTRYSPSFQGQVTISADKSISTAYLQWSSLKASDTAMYYCARRKYSYTYDYFDYWGQGTLVTVSS
VL: QTVVTQEPSFSVSPGGTVTLTCGLSSGSVSTSYYPSWYQQTPGQAPRTLIYSTNTRSSGVPDRFSGSILGNKAALTITGAQADDESDYYCVLYEGSGISYVFGTGTKVTVL
notes: Fab; expressed with CH1 (His and Flag tags) and lambda CL from the expression plasmids; also called H:KT & M94E

Legend:
[1] = target: T1, Recombinant Human DLL4 (delta-like protein 4) (human, UniProt Q9NR61 27-524); experiment: ECL (MSD) binding assay, immobilised DLL4, 10 nM Fab;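 note: fab binding read as electrochemiluminescence via a TAG-labelled detection antibody, 1 h incubations at 20 °C, antigen signal compared with each well's blank, ratio of at least 4 scored as binder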
T1 construct: Bought recombinant human DLL4 (R&D Systems Cat#1506-D4/CF); also called rHuman DLL4

[2] = target: T1, Recombinant Human DLL4 (delta-like …); experiment: ELISA, DLL4-coated plate, 100 nM Fab

Binder | ECL Signal [10 nM Fab] [1] | ELISA Signal [100 nM Fab] [2]
B1 | 42900 | 0.01
B2 | 27100 | 0.01
B3 | 20300 | 0.01
B4 | 39900 | 0.01
B5 | 51300 | 0.01
B6 | 45300 | 0.01
B7 | 52300 | 0.02
B8 | 40400 | 0.01
B9 | 22500 | 0
B10 | 46800 | 0.02
B11 | 49600 | 0.02
B12 | 38300 | 0.02
B13 | 26300 | 0.01
B14 | 47300 | 0.02
B15 | 43000 | 0.02
B16 | 77800 | 0.01
B17 | 52700 | 0.01
B18 | 32500 | 0.01
